Data set [1] has as its system MS2 coat protein. Description: apparent KD of MS2 coat protein, switch ON state; designed switch direction (-1 OFF switch, 1 ON switch): -1; higher = weaker reporter binding. To be noted: FMN input: 0 or 200 uM; Eterna round: R93 (includes R88 designs). The method, boiled down:
(§1)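 The buffer was 100 mM Tris-HCl pH 7.5 with 80 mM KCl and 4 mM MgCl2, used without or with constant ligand. In it, RNA switches transcribed on-chip from Illumina sequencing clusters were titrated with SNAP-549-labelled MS2 coat protein in twofold steps from 0.7 or 1.5 nM to 3 µM. Apparent KD for each design is the median of its normalised cluster binding-curve fits.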

Data set [2] deals with MS2 coat protein. The experiment in a line: apparent KD of MS2 coat protein, switch OFF state (with FMN for OFF switches, without FMN for ON switches); designed switch direction (-1 OFF switch, 1 ON switch): -1; higher = weaker reporter binding. The settings on record: FMN input: 0 or 200 uM; Eterna round: R93 (includes R88 designs). The method, boiled down:
as §1

The source of these data is the supplement of paper PMC9170038.

On to “GAAUACCUAGGAUAUACAUGAGGAUCACCCAUGUCAGUAGACUGGGAAAAGUCUCUCAGUAGAAGGAGGACCAG [Anaran]”, for which the “apparent KD of MS2 coat protein” value came out at 192 nM in data set [1] and 233 nM in data set [2].

For “CAAUCUGCAGGAUAUACAUGAGGAUCACCCAUGUAAGGACAAUAAAUAAGAAGAAGAAGUAGAAGGGCAGACAA [e3]”, the “apparent KD of MS2 coat protein” value in data set [1] turned out to be 27.5 nM; in data set [2], 29.2 nM.

In the case of “AACAGUACAGGAUAUACAUGAGGAUCACCCAUGUGAAAAUUAAGUGGGAAACCACAAGGUAGAAGGGUACUGGA [Mat - Exclusion 3 - Eli mod - D64]”, the “apparent KD of MS2 coat protein” value in data set [1] worked out at 27.1 nM; in data set [2] it was 157 nM.

Turning to “AGCUAGUCAGGAUAUACGAACAAGAAAAAAGACGAGAACGGACAUGAGGAUCACCCAUGUAGAAGGGACUAGCA [Diamond 9]”, the results for the “apparent KD of MS2 coat protein” value in data set [1] and in data set [2] were 23.8 nM and 26.3 nM, respectively.

For the sequence “UCUUGACAUGAGGAUCACCCAUGUCAGGAUAUAGUAGGACAAAUAAAUAAAAGUUCUACUAGAAGGGAUAUGGA [Design 18: G-U+]”, the “apparent KD of MS2 coat protein” value in data set [1] came out at 14.3 nM; in data set [2], 12.7 nM.

On to “UAAAAACAUGAGGAUCACCCAUGUCAGGAUAUGUGCUCAGUGAAAAACUGAGUAACAAGCAGAAGGGACAAUAA [JR_Exc001_Sub202]”, for which the entries for the “apparent KD of MS2 coat protein” value in data set [1] and in data set [2] were 23.6 nM and 31.4 nM, respectively.

Regarding “AGAAAGUCAGGAUAUACGAAUAAGAAUAAAGACGAGAUCGGACAUGAGGAUCACCCAUGUAGAAGGGACAAGAA [Diamond 17]”, the “apparent KD of MS2 coat protein” value was determined as 121 nM in data set [1] and 74.7 nM in data set [2].

With “AACAGUACAGGAUAUACAUGAGGAUCACCCAUGUAGAGAGAAUAAAACAAAAAUAAAAGUAGAAGGGUACUGGA [Ruby 48]”, the “apparent KD of MS2 coat protein” value was found to be 21.8 nM in data set [1] and 19.3 nM in data set [2].

For the sequence “AAGGGACAUGAGGAUCACCCAUGUCAGGAUAUGAUGCGAAUAAAGAAAGAAGAAAGCAUCAGAAGGGACGCCAA [58%, Disencluded 3, 5]”, the “apparent KD of MS2 coat protein” value in data set [1] came out at 25.4 nM; in data set [2] it was 39.5 nM.

Consider “CUCAUGUGAGGAUAUGUACAGAAAAAAAUGGGUGAAACUGUACAGAAGGCACAUGAGGAUCACCCAUGUGCCAA [EX4 376: S S Pseudoknot 1]”, for which the “apparent KD of MS2 coat protein” value in data set [1] worked out at 52.2 nM; in data set [2] it was 16.3 nM.

With “AAAAAACAUGAGGAUCACCCAUGUUAGGAUAUGCUAUGGAAAAUAAAAAUAAAACAUAGCAGAAGGGACAAAAA [Denovo 1]”, the “apparent KD of MS2 coat protein” value in data set [1] was found to be 21.3 nM; in data set [2], 32 nM.

Turning to “AACUGACAUGAGGAUCACCCAUGUCAGGAUAUGAUUUGACGAAAAAAAAUAAGUCAUAUCAGAAGGGACAUGGA [Design 84: Sub-opt WB]”, the “apparent KD of MS2 coat protein” value in data set [1] came out at 26 nM; in data set [2], 45 nM.

As for “UCCGGACAUGAGGAUCACCCAUGUGAGGAUAUAUAAAGUGGGACUGGAAACAGUCCCAAUAGAAGGCACAUGAA [Celaar]”, the “apparent KD of MS2 coat protein” value in data set [1] was determined as 21.2 nM; in data set [2], 19.6 nM.

“AAAAUGUGAGGAUAUGUACGAAAAAAUAAAAAAAUAAAAGUACAGAAGGCACAUGAGGAUCACCCAUGUGAAAA [EX4 396: Minimal 9]”: the “apparent KD of MS2 coat protein” value was found to be 28.3 nM in data set [1] and 79.1 nM in data set [2].

Take “AAGAAACAUGAGGAUCACCCAUGUCAGGAUAUUGAAAAGAAAAGAAAAGAAAGAAGAACAAGAAGGGACAAAGG [Neferkare (III) Neby]”: the figures for the “apparent KD of MS2 coat protein” value in data set [1] and in data set [2] were 37.1 nM and 40.3 nM, respectively.

As for “GAAAAUGGAGGAUAUACAUGAGGAUCACCCAUGUGUAAAAAAAAUUACACAAAAGAAAGUAGAAGGCCAUAAAG [Mat - Exclusion 3 - Mayanna mod - D106]”, the “apparent KD of MS2 coat protein” value was 49.8 nM in data set [1] and 138 nM in data set [2].

Take “AAGAAGUCAGGAUAUGCCAGAGAUCACGAAAGUGACGAGUAGCAGAAGGGACAUGAGGAUCACCCAUGUAAAGA [Opal 7]”: the “apparent KD of MS2 coat protein” value is 39.8 nM in data set [1] and 45 nM in data set [2].

Regarding “ACAGUUAGAGGAUAUACGUGGAAAAAUAAAAAUAAAAAACUACAUGAGGAUCACCCAUGUAGAAGGCUAACUGA [Ex2 Design 196: Random 12E]”, the “apparent KD of MS2 coat protein” value in data set [1] is 24.8 nM; in data set [2] it was 66.1 nM.

Consider “AAAAAACAUGAGGAUCACCCAUGUAAGGAUAUGCUCGUGCGAAAAAGCACAAAAAAGAGCAGAAGGUACAAAAA [66%, Wbt, 40]”, for which the figures for the “apparent KD of MS2 coat protein” value in data set [1] and in data set [2] were 18.8 nM and 34.4 nM, respectively.

For the sequence “AACUGACAUGAGGAUCACCCAUGUCAGGAUAUGACAUCGAAAAAAAAAAAAAUCGUUGUCAGAAGGGACAUGAA [Design 77: Sub-opt SB]”, the results for the “apparent KD of MS2 coat protein” value in data set [1] and in data set [2] were 16.7 nM and 13.1 nM, respectively.

On to “AACAGUACAGGAUAUACAUGAGGAUCACCCAUGUGAGAAUUAAGUGGAGAACCACAAAGUAGAAGGGUACUGAA [Mat - Exclusion 3 - JL mod - D8]”, for which the “apparent KD of MS2 coat protein” value is 39.2 nM in data set [1] and 147 nM in data set [2].

As to “AAGAAGGCAGGAUAUACAAAAUAAAAGAAAAGAAAGAAAGAACAUGAGGAUCACCCAUGUAGAAGGGCCAAGAA [Seankhibre Amenemhet VI]”, the “apparent KD of MS2 coat protein” value in data set [1] was found to be 58.3 nM; in data set [2], 37.2 nM.

Turning to “UCCUGACAUGAGGAUCACCCAUGUCAGGAUAUAGUAUGAAAAAAAAAAAAAAAAAAUACUAGAAGGGACAAGGG [Design 13: Super Stable Short Helix 4]”, the “apparent KD of MS2 coat protein” value in data set [1] came out at 18.5 nM; in data set [2], 26.8 nM.

Turning to “AGCUGGUCAGGAUAUGCGUGAAGAAUAAAACAAAUAACAACGCAGAAGGGACAUGAGGAUCACCCAUGUCAGCA [May 50]”, the “apparent KD of MS2 coat protein” value in data set [1] was found to be 23.9 nM; in data set [2], 20.3 nM.

As for “AAAAAACAUGAGGAUCACCCAUGUGAGGAUAUACGAAAGUAGAAGGCACUAAAAAAAAAAAGAAGGAAAAAAAA [Meechl Ex1 R2 m0]”, the results for the “apparent KD of MS2 coat protein” value in data set [1] and in data set [2] were 24.2 nM and 42.4 nM, respectively.

“AAAGCUGAAGGAUAUACUUGGAAAAAAAAAAAAAAAAAAAAACAUGAGGAUCACCCAUGUAGAAGGUCAGAUAA [Mat - Mod]”: the “apparent KD of MS2 coat protein” value in data set [1] was found to be 41.1 nM; in data set [2] it was 36.7 nM.

Regarding “AAAAAACAUGAGGAUCACCCAUGUCAGGAUAUCGAAAAGAAAAGAAAAGAAAGAAGAACGAGAAGGGACAAGAA [Menkaura]”, the entries for the “apparent KD of MS2 coat protein” value in data set [1] and in data set [2] were 29.3 nM and 24.5 nM, respectively.

For “GAAAAGUCAGGAUAUGCAGACAAAGCAAAAAAGCAAUGUCUGCAGAAGGGACAUGAGGAUCACCCAUGUAAAAA [Mat - Exclusion 4 - Mayanna - D115]”, the “apparent KD of MS2 coat protein” value in data set [1] was 51.4 nM; in data set [2], 45.2 nM.

In the case of “ACCAGACAUGAGGAUCACCCAUGUCAGGAUAUAGUAUGAAAAAAAAAAAAAAAAAAUACUAGAAGGGACAAGGG [Design 14: Super Stable Short Helix 5]”, the “apparent KD of MS2 coat protein” value in data set [1] is 29.7 nM; in data set [2], 63.8 nM.

For the sequence “AACUAGUGAGGAUAUGCAAGAAAAAAAAAAAAAAUAAAGGGACAUGAGGAUCACCCAUGUAGAAGGCACUAACA [Diamond 68]”, the “apparent KD of MS2 coat protein” value is 42.7 nM in data set [1] and 58.8 nM in data set [2].
